Data taken from a protein production outcome set (Wang et al. 2014).

Test: label from the status in PepcDB records

Sequence | protein production
MSLSFLKHVQDCNTHDLSNFVRFVIEGRRVGWVRKALAQRLKAHGRVFDVTRDAVLLSASLRTPQSRTRAVADVVDRLADEGVVPAPRGELYRVNQSWGEPTLMLLDRAVVPTFGVRAYGVHLNGYVGAGADLHLWIGRRSPDKSVAPGKLDNMVAGGQPADLSLRQNLIKECAEEADLPEALARQAIPVGAITYCMESPAGIKPDTLFLYDLALPEDFRPHNTDGEMADFMLWPAAKVVEAVRTTEAFKFNVNLTVIDFAIRHGLIDPDNEPDYQEILAGLRGRPRERAASEGHHHHHH | not failed
MPCTAKVLELRPSVDALLRQHVRTLQGTGRGQCSKSFVPAIRQELVMIALFQGLGLLLQDNALHRLPFDEQVAHWRDKTDAQLDEELSLLKVAKKQWVIASIIGWQAISLILLGVITHQLWQNDYHLTFSRVVIIFTSWASILFVMWYIADLFDHSAGFERWLRAFNSRARVTPDADSVECVADALDMTRRYPEVLRYKQEVTSKRELRHEDIVNMREMGRLRRYTELLRDLDRFDGAPRLVANA | failed
MYAIAEDTLPARVLKELLLYRRRYPEHRQSASEADEIRRIEQVQLPRIAAFIEAGEPIEFVLPAFPAKSPNPGKVLDSRPDMAERLSLSFLNHLCQRIQLFYAPGAKITVCSDGRVFGDLVRIGDAHISAYQDALRLMIEEIGATHIGVFNLEDVRAFEAQRDNHEQLRQLLIGGYAEPLESIRETLLASEEGLLLYRAITRFLYEDGLTPDYQGSKTALQRDAKERAYGVIQRSWAWGALLADQFPRAIRLSIHPQPADSLKFGIHMMPTRDDWLTPWHGVAVNTEDRFVLMKRSEVLELGGELVQINGQPSHYRLPARAARRAAVALEHHHHHH | failed
MAESTIITGQFVRISQVPASLGERILARIIDYFLLFIYILATSYILGKLNIHAFSGSTFFLLFLFIYLPVLCYSLLCEVFNQGQSAGKKLMNIRVVKADGTTPSLSAYLLRWLLYGIDVTITGGLGVLVILLTKNSQRLGDLAAGTMVIKEKNYRKIQVSLDEFDYLTKGYHPSFPSAADLSLEQINVISKALELHHKDRTRHIAQLAPKVRALLSVDQTNINDEKFLQTVVRDYQYYALEEI | failed
MSKLIFSVLISVYYNESISYFKKSLDSILYQTLLPAEVVLVKDGILTDDLNCIVKEYSQKYPILKVISLPVNQGLGKALNEGLKHCSYDLVARMDTDDIAKPDRFEKQIRVFQEHPELDVVGAWIDEFEETTSNIISTRKLPEVHDDICQFAKKRNPENHPVIMFRKQAVLAAGGYQHFPLFEDYYLWIRMLQNGAKFYNIQESLLYFRFSPAMFKRRGGLKYVTTELRFQNQLRNLGFITSSEYLYNVFIRVITRMMPNTLRAILYKKALRK | failed
QIKIRKATKEDWEKIYQLYNSLSDEDLYLRFFHLYRITEEDAKKIASNEDHVTFLAEVDGKVVGEASLHKDGEFSLVVHRNYRTLGIGTLLVKTLIEEAKKSGLSTVKFYTLPENTPMIKIGRKLGFKMRFYEDEVYGEMRL | not failed
MSWAAPDDIFFSTSLAAYLDKKLLVLLRDGRKLMGLLRSFDQFANAVLEEAYERVIVGDLYCDIPLGLYIIRGENVVLIGELDVEKEELPAHMVQVPEAEIKRAQKAEKEEMLLKGTMRKRMEFLDLD | failed
MPVRRPCPGRPYRDLSSAPGTAVRAEPTTPLPPFALRTCACQTPGRDMSVNALTAVPSARSIPATSAFRGRIGCDARSGHYPVPGRYRLHLSPSCPHCLKIAVAHSLLGLEDACPVTLLPAVPDGPGGEHSALRPLYEASAHRYAGAAVAPVLSDDWSGRIVSTHAPDIMRDLARRFGGERPPLYPKGMEAEIEAVGHLCEQGINATAQRAGRADADDAERDSALGSLLRTLRSLEGRLARQDYLLGDRLTAADIELWVSLVQLDTVHRWHLDASAVHRVADHPALWAYARRLAGDPAFGAHLDLDGIARRHHAHCRGLEAAGAAVQIVEWAAHAPDRTASRQG | failed
MMKAYQREFIEFALEKQVLKFGEFTLKSGRKSPYFFNAGLFNTGRDLARLGRFYAAALVDSGIEFDVLFGPAYKGIPIATTTAVALADHHDVDTPYCFNRKEAKNHGEGGNLVGSKLEGRVMLVDDVITAGTAIRESMELIQANKADLAGVLVAIDRQEKGKGELSAIQEVERDFGCAVISIVSLTDLITYLEQQGNNTEHLEAVKAYRAQYGI | not failed
MNHLISVGALESFLVAISVLFLGHFINAKLPILKKFNIPEPIVGGLIVACIITALHFNGVDLEFDLPLQNTFMLMFFATVGLAANYTQLMKGGAKVFIFLAVASFYIIIQNGVGVSLAAALGLDPLMGLIAGSITLSGGHGTGAAWSQTFQDVYGLNNVLEIAMASATFGLIIGGIIGSPVAQRLVEKHGIESEYGRGGRDAKTHEKFPELVTYNEYEEDKVTAKKVVEKLFFLLICVTGAKYVEQWVSTYEISWLMIPDFVYALFIGVIITNFLEVTKIRKLDAETVDMLGTVSLSLFLAMALMSLKLWNIFDLAIPFLVILAIQSVILAIFTYYVTFKVMGSNYDAAVISGGHCGFGLGATPTAVMNMGSIVNRFGPSPQAFMVVPIVGAFFIDIVNLIILQGYISFLG | failed
MAELQMLLEEEIPGGRRALFDSYTNLERVADYCENNYIQSADKQRALEETKAYTTQSLASVAYLINTLANNVLQMLDIQASQLRRMESSINHISQTVDIHKEKVARREIGILTTNKNTSRTHKIIAPANLERPVRYIRKPIDYTILDDIGHGVKVSTQNMKMGGLPRTTPPTQKPPSPPMSGKGTLGRHSPYRTLEPVRPPVVPNDYVPSPTRNMAPSQQSPVRTASVNQRNRTYSSSGSSGGSHPSSRSSSRENSGSGSVGVPIAVPTPSPPSVFPGHPVQFYSMNRPASRHTPPTIGGSLPYRRPPSITSQTSLQNQMNGGPFYSQNPVSLAPPPPSILQVTPQLPLMGFVARVQENISDTPPPPPPVEEPVFDESPPPPPPPEDYEEEEAAVVEYSDPYAEEDPPWAPRSYLEKVVAIYDYTKDKEDELSFQEGAIIYVIKKNDDGWYEGVMNGVTGLFPGNYVESIMHYSE | not failed
MPRRDLLDLLALAAVWGGSFLFMRVAVPEFGPAALMELRVGLAALFLLPLALWRGKPALIARHWKAILVVGTLNSALPFLLYAYAAQSLGAGFLSVANAVTPVWGAVIGWLWLGDRLPRMRALGLLISLSGIIVLVWDKLDFHDGGTGPAVLAAISAPVFYGMAANWTKRYLGHVDALTNATGSMVAASLVLAPLAIIHWPEQAVSFEAWRATVLLAIVCTGAAYIVFFRLIARVGPTAAVSVTFLVPVFGVLWGVWFLDEAVTPRILAGAGVILVGTALALGLVGARRVAAAD | failed
SIVLSDPDTVADYLRFHLGQEKVEVSVALLLNRQNQLIAVRELSRGTVAENTIYIREIVKLALDEYADSLIIAHNHPGGSPEPSQEDIMFTRRLAQAMSLVDVSLLDHFIVTSQSVCSFRQLGLMP | not failed
MLILKNSMASPHPFPWPQRFTVMALTFAWGLSLPVLAQTKSAVQWYNDGVDKLAAQNFSGAIADFTESIKLNDQDADAYYNRGYAKHVLGQYQAAITDYNQAISLNPEFAYALGNRCYAYFLLSQYDKAIQDCSNAIEINPNYADFYVYRGNSQSQLGNETTAIADYNDAIRINAQHANAYYNRALTHNRLKQDQQALADYNQSIQLDPDSAEAYFNRGLTQYRLGDEPKAIADLTKAAELFNAQEKKDMAQKAEAILTQIRAIDA | failed
METRFVTPFHHLLVNNLVANITNFTIWFALTFYVYLETKSVFATGMIAGVYLVLTAACGIWFGSLVDHHRKKLAMAGSSLASLLLYALALAVLLLAPKGAIADVGRPWLWALIGLSMLGVIAGNIRTIALPTLVTLLIPEDRRDKANGLVGMVSGVGFLTTSVISGFLVAWGGMLAALTFALGFTVAALVHLLTVPVDEPRVEAEHGAPVAPRRIDLAGTIKVVAAVPGLFALILFATFNNFLGGIFMALLDAYGLSMVSVQAWGLLFGFLSVAFIISGLAISKTGLGKNPLRTLLLVNLISWAVCCVFPLKSSIVMLAMGCFVWMLLGPYAEAAEQTTLQKVVPFERQGRVFGFAQSVEQAASPLTAFLIGPLTQFIVIPFMTHGAGAAAIGDWFGRGPDRGMALVFTLAGVVGLIVTLLAFGSKAYRQLSAAYAQGEPAPAA | failed
MSFSLWLLVLGCILLTLGLASAYLRLLPVSTSFIYLLFGLAIGPAGLHAWRSGLADISGWFEHLSEAALLISLFIGGLKLRLPLRSPAWTAAWLLAGPVLLGCILGLTLGAHFLFGLDWGLALLVAAILAPTDPVLASDIQVNHAGDDDRLRYAVSGEAGLNDGIAFPFVIAALLLIGQGGGLPGEFDRSGLDWLLRDVLWAIPLGLLVGYCLGHGLGRLAIHLRARHTDTSVSANDFLALALIALSYVGADALGGWGFLASFAAGIGLRHAEVATLGRASAPAEAQAAAADVREAGQASGAIEYGADRSEHPKVAAGAVMLDVLSFGNLLERSLEVLLVTLLGAMLYQHWDWRALPLALLLFCVCRPAMVWLLVGRRLMHPAQRRLLGWFGIRGIGSLYYLSYALNQGLPTALAHTASDLVLSLVALSICVHGLSIQPLLMRHARSVSRRDRE | failed
MPEGLATAQAKYNGAAGRAFVEGLPALAAGFLERWELRLDGPSMHGWAALVLPVVRRDGTGAVLKLQILDAETEGEPLALRVWDGDGAVRLLDHDPATGTMLLERLDAGRMLSHVADSREAVLVIARLLAHLTATPAPPGVRRLGDIARGMLERTPGTLERIPDPADRRLVADCAAAVREVVDEPGDRLLHWDLHYENVLAADRAPWIAIDPKPLAGDPGFDLLPALDNRYDPGETRWRFDALTDVLGLDRERARAWSLGRVLQNSLWNVEDGDPLETEQMEIGRLLRDL | failed
MLDVAIIGGGPAGLSAGLYATRGGLKNVVMFEKGMPGGQITSSSEIENYPGVAQVMDGISFMAPWSEQCMRFGLKHEMVGVEQILKNSDGSFTIKLEGGKTELAKAVIVCTGSAPKKAGFKGEDEFFGKGVSTCATCDGFFYKNKEVAVLGGGDTALEEALYLANICSKIYLIHRRDEFRAAPSTVEKVKKNEKIELITSASVDEVYGDKMGVAGVKVKLKDGSIRDLNVPGIFTFVGLNVRNEILKQDDSKFLCNMEEGGQVSVDLKMQTSVAGLFAAGDLRKDAPKQVICAAGDGAVAALSAMAYIESLH | not failed
MNGGTFTPGKEKDRAGIYFNFKTTAEERVSIGDRGTVALPVVMSWGEPKTFVSISSIEDLNKKVGLNIDDPSLLLFREAKKNAQTVLLYRLNTGAPAKAQIGETLSVTAKYGGEKGNDISIRISENVLDSKKFDVTTFVGTDEADRQTVKTAEELTANAYVAFQGEGALELTAGTKLSGGENGTASVADYTAFLDAAETEYFNTIALPVADNEQLKATFAAFIKRLRDKQGQKVQGVVADYAGDYEGIINVTGGVVLEDGTEITPEKATAWVAGASAGATFNQSLTFVEYEGAVDVLNRLDEDQVIERLKKGEFLFTFDARDQSVSVEKDINSLTSFTADKNKKFSKNKIIRVLDGVNNDLTRELKALIKARKASGSDIPASDDGLQYVKTLIIQYMTALQEAGGITGFDSESDIAITLNEDRDGFLIDLAVQPVDAAEKFYFNVEVK | failed
MSLNKKVFIIDKQTVYQEIDNFSASDAWRCAFIGKNWPQEKKEKIADLLFKREFDEKGNPIGMALTNWRVNIGAGSYENREAKEVDNSWNRTECFLSPDGKYDFTKQAGQQWFMKAARERGMNNFLFFTNSAPYFMTRSASTVSTDQDCINLQNDKFDDFARFLVKSAQHFREQGFHVNYISPNNEPNGQWHANSFQEGSFATKADLYRMVEELDKAISEAQIDTKILIPEVGDMKYLFEIDSIAKTPDDIIHSMFYKDGQYSVLKFKNLFNCVAAHDYWSAYPATLLVDIRNRIHKELSANGHNTKFWASEYCILEKNEEITMPASPERSINLGLYVARIIHNDLTLANASAWQWWTAVSLGEDVPIQLLPLEGSNGLSLQYDGEISTTKMLWTTANYSFFVRPGMKRIAIKPTYKISDLEAATSLMISSYTDGKEVVTVAINYSKENQVISLNCDHAQKGKVYLTTIDKNLRYMGEQPLKKLQLPARSVATIVVEDNEGHHHHHH | not failed
